Data published in patent publication US20170174769A1 (Regeneron, published 2017).
Where a chain is given by its changes, count along the chain named. Names and notes keep the numbering of the source.

T1: extracellular domain of human KLB expressed with C-terminal HA and hexahistidine tags (human, UniProt Q86Z14 1-996)
T1 construct: also called hKLB-HA-6His; hKLB-HA-6his
T1 sequence: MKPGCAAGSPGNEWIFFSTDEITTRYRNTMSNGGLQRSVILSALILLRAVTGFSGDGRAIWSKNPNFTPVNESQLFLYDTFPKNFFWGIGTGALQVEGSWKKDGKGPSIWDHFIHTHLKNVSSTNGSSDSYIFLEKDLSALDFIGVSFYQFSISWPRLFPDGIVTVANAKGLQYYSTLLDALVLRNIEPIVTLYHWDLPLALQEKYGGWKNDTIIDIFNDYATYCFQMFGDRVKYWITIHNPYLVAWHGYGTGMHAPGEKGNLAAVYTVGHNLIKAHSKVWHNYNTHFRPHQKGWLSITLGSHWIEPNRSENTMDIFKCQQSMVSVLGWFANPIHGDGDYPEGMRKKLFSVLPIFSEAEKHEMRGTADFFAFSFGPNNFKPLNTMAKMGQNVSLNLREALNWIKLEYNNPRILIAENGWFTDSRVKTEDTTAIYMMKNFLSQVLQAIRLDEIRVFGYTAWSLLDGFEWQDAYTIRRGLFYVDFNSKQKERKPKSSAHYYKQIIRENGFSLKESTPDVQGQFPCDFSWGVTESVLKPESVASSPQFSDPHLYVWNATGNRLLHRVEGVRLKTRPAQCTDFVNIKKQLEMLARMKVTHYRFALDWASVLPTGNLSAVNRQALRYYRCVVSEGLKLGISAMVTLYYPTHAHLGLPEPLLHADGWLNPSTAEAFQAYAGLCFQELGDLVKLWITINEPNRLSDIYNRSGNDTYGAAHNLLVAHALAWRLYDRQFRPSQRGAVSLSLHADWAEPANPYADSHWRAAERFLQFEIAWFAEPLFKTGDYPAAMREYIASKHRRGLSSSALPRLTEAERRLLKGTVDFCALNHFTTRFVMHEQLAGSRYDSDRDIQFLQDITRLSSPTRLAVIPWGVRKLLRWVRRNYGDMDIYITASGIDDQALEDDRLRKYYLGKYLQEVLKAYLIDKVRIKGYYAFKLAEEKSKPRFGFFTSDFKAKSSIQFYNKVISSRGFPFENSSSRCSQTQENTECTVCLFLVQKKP

T2: extracellular domain of human FGFR1c expressed with C-terminal V5 and hexahistidine tags (human, UniProt P11362 22-376)
T2 construct: also called hFGFR1c-V5-6His
T2 sequence: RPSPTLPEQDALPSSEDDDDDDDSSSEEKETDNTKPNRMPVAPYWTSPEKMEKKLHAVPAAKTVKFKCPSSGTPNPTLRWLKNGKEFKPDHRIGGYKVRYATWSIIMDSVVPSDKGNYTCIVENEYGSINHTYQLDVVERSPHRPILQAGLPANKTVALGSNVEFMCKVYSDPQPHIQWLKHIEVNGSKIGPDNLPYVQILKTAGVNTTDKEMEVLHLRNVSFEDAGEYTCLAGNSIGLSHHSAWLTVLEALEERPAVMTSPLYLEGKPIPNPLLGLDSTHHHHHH

B1: H1H8897P (antibody, V domains shown)
VH: QVQLVESGGGLVKPGGSLRLSCAAAGFTFSDYYMSWIRQAPGQGLEWVSYISPSGSTTYYADSVQGRFTISRDNAKSSLYLQMNSLRAEDTAVYYCARTGIQLWSVYFDYWGQGTLVTVSS
VL: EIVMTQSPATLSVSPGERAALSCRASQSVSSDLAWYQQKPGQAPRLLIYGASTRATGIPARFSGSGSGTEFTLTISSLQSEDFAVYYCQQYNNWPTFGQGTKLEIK
notes: H1H Fc prefix (human Fc)
B2: H1H8898P (antibody, V domains shown)
VH: B1 VH with A25S, T28I, Q43K, E46D, V48I, T58I, Q65K, S77N, E89D
VL: EIVMTQSPATLSVSPGERATLSCRASQSVGSNLAWYQQKPGQAPRLLIYGASTRANGIPARFSGSGSGTEFTLTISGLQSEDFAVYYCQQYNNWPTFGQGTKLEIK
notes: H1H Fc prefix (human Fc)
B3: H4H8880P (antibody, V domains shown)
VH: EVQLVESGGGVVQPGGSLRLSCAASGFTFSLYAMSWVRQAPGKGLEWVSAISGSAHGAYYADSVKGRFTISRDNSKNSLYLQMNSLRAEDTAIYYCAKDLVIAVAGTFDYWGQGTLVTVSS
VL: DIQMTQSPSSLSASVGDRVTITCRASQIISTYLNWYQQKPGKAPKILIYTASSLKSGVPSRFSGSGSGTDFTLTISSLQPEDFATYYCQQTYSSPRFTFGPGTKVDIK
notes: human IgG4 Fc (H4H prefix)
B4: H4H8878P (antibody, V domains shown)
VH: QVQLVESGGGVVQPGRSLRLSCAASGFTLNTYGMHWIRQTPGKGLEWVSLISYDETKEYYVDSVKGRFTISRDNSKNTLYLQMNSVRVEDTAVYYCAKPLTGSTDYYYGLDVWGQGTTVTVSS
VL: DIQMTQSPSYVSASVGDRVIITCRASQDISSWLAWYQQKPGKAPKLLIYVTSSLESGVPSRFSGSGSGTDFTLTISGLQPEDFATYYCQQVKSFPPTFGPGTKVDIK
notes: human IgG4 Fc (H4H prefix)
B5: H4H8881P (antibody, V domains shown)
VH: QVQLVQSGAEVKKPGASVKVSCKASGYTFTSYVIHWVRQAPGQRLEWMGWSNAANGDTKYSQEFQDRVTFTRDTSASTAYMELSSLRSEDMAVYYCARWNWNYGAFDIWGQGTMVTVSS
VL: DIQMTQSPSSLSASVGDRVTITCQASQDINNYLHWYQQKSGKAPNLLIYDASILETGVPSRFSGSGSGTDFTFTISSLQPEDIATYYCQQYDNLPYTFGQGTKLEIK
notes: human IgG4 Fc (H4H prefix)

Experiments:
[1] = target: M. fascicularis KLB and human FGFR1c co-expressed on HEK293/MfKLB/hFGFR1c/SRE-Luc cells (M. fascicularis; human, UniProt A0A2K5WB58 1-1044); test: cell-based or functional assay
[2] = target: T1, extracellular domain of human KLB …; test: SPR, mAb captured, 37 C
Procedure, shortened: (§1)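 First, an anti-mouse or anti-human Fc antibody is amine-coupled to the chip. Next, the mAb is captured, then soluble tagged receptor associates for 3.5 to 4 minutes and dissociates 8-12 minutes in HBST buffer. Finally, 1:1 fitting gives ka and kd.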

[3] = target: T2, extracellular domain of human FGFR1c …; test: SPR, mAb captured, 37 C
Procedure, shortened: as §1

[4] = target: T3, human KLB and human FGFR1c co-expressed on HEK293/hKLB/hFGFR1c/SRE-luc cells (human, UniProt Q86Z14 1-1044; P11362 22-822); test: FACS on stable HEK293 cells
T3 construct: two receptors co-expressed on one cell line; also called KLB/FGFR1c coreceptor; FGF21R
Procedure, shortened: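 HEK293 cells stably expressing full-length human FGFR1c with an SRE-luciferase reporter, alongside parental, hKLB and hKLB/hFGFR1c lines, stained with anti-KLB/FGFR1c antibodies in PBS with 1% FBS and analyzed by flow cytometry. Geometric mean fluorescence of viable cells was normalized to unstained cells to give binding ratios.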

Row | Binder | IC50, inhibition of 10 nM mfFGF21 [1] | Maximum Inhibition (%) of 10 nM mfFGF21 [1] | 20 nM hKLB-HA-6His Bind (RU) [2] | 180 nM hFGFR1c-V5-6His Bind (RU) [3] | binding ratio to unstained cells [4] | Kd [2] | koff [2] | kon [2] | t1/2 [2] | EC50, SRE-luc activation without ligand [1] | Maximum Activation (%) without ligand [1]
1 | B1 | 5.2 nM | 101% | 1.9 RU | 0.7 RU | 8 fold |  |  |  |  |  | 
2 | B2 | 12 nM | 97% | -1.9 RU | 0.4 RU | 8 fold |  |  |  |  |  | 
3 | B3 | 0.12 nM | 39% | 148 RU | 0.1 RU | 32 fold | 0.945 nM | 0.000526 s⁻¹ | 556000 M⁻¹ s⁻¹ | 22 min |  | 
4 | B4 | 0.12 nM | 38% | 101 RU | 0.8 RU | 35 fold | 0.305 nM | 0.000241 s⁻¹ | 790000 M⁻¹ s⁻¹ | 48 min |  | 
5 | B5 | 0.046 nM | 77% | 101 RU | 0 RU | 35 fold | 0.32 nM | 0.000463 s⁻¹ | 1.45e+06 M⁻¹ s⁻¹ | 24.9 min | 0.02 nM | 3%
